Source: the nanobody polyreactivity screen of Harvey et al. (2022)

experiment: yeast display, Sf9 membrane polyspecificity reagent, FACS + sequencing; frameworks hold sequencing errors
Procedure, shortened: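 In a synthetic yeast display library (Saccharomyces cerevisiae BJ5465), nanobody expression was induced with galactose for 36–48 hours. FACS gates were set low and high (top ~1%) using anti-HA fluorescence for expression and streptavidin fluorescence for binding of the Sf9 membrane reagent. Each polyreactivity label is drawn from the gate of origin.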

Sequence | polyreactivity (PSR sort gate)
QVKLVYSGGGLVQAGGSLRLSCAASVSIFYYYGMGWYRQAPVKERQLVAAITYRGTRTYYADSGKGRFTFSRDNAKTTVYLQMYSLKAEDTALYYCAAERRIYSSDSWGQGTQVTVSS | high polyreactivity
QVKRVESGGGLVQAGGSLRLSCAASGSTFYRYAMGWYRQAPGKERELVAAINGRGGRTYYADSVKGRFTISRDNAKNTVYLQMNSLKPEDTAVYYCAARGYAPDTYGYWGQGTQVTVSS | high polyreactivity
QVLLQESGAGLVQAGGSLRLSCAASGTISTDIRMGWYRLAPGKEREFVASIDGCSTTYYADSVKGRFTISRDNAKNSVYLQLNSLKPEDTAMYYCAAREDTEFYLYYWGQGNQVTVSS | low polyreactivity
QVLLQESGGGLVQAGGSLRLSCAASGTISTDIRMGWYRLAPGKEPEFVASIDGCSTTYYADSVKVRFTISRDNAKNTVYLQMNSVIPEDSAMYYCAAREATEFYLYYWGQGTQVTVSS | low polyreactivity
QVLLQESGGGLVQAGVSLRLCCAASGYISGDQFMGWYRQAPGKEREFVAGIGNGTNTNYADSVKGRFTTSRDNAKNTVYLQMNSLKQEDTAVYYCAADPSDGSTLAYWGHGTQVTVSS | high polyreactivity
QVLLQESGGGLVQAGVSLRLSCAASGNIFSAGGMGWYRQAPVNERELVAGIGTGTSTNYADSVKGRFTISRDNAKNTVYLQMNSLKPEDTAVYYCAAAYYSGLSHWYWGQGTQVTVSS | low polyreactivity
QVLLQESGGLVQAGCSLRMSCAESGSISTALSMGWYRQAPGKERELVATISDGASTNYADSVKGRFTISRVNAKNTLYLQMNSLKPEDTEVYYCAAQSQYRPDHRYWGQGTKVTVSS | high polyreactivity
QVLLVESGGGLVHAGGSLRVSCASSGFTFKENAMGWYRQAPGKERELVAAISSTGGSTYYADSVKGRFTISRDNAKNTVFLLMNSLKPEDTAVYYCAASTYWYDGDYWGQGTQVTVSS | high polyreactivity
QVLLVESGGGLVQAGGSLRLSCAASGIIFYRNAMGWYRQAPGKERELVAVITASGGHTYYADSVKGRFTISRDNAKNTVYLQMNSLKPEDTAVYYCNRELTSPRRWHVSRADDYWGQGTQVTVSS | low polyreactivity
QVLLVESGGGLVQAGGSLRLSCAASGISIRAKAMGGYRQAPGKVRELVAAITWSGGDPYYADSVKGRFTISRDNAKNTVYLQMNSLKPEDTAVYYCNALQPGLGSPLGEYDYWGQGTQVTVSS | low polyreactivity
QVLLVESGGGLVQAGGSLRLSCAASGITFGRNTMGWYRQAPGKDRELVAAIDSGGNTYADSVKGRFTISRDNAKNTVSLQMNSRKPEDTAVDYCAVDGGEFSSYGYWGQGTQVTVSS | low polyreactivity
QVLLVESGGGLVQAGGSLRLSCAASGLTFVYVMGWYRQAPGKERELVAGISYSAGRTYYADSVKGRFTISRDNAKNTVYLQMNSLKPEDTAVYYCAATKRGRPQRGYWGQGTQVTVSS | high polyreactivity
QVLLVESGGGLVQAGGSLRLSCAASGYNFFTKAMGWYRQAQGKERELVAAISKSGGRTYYADSVKGRFTISRDNAKNTVYLQMNSLTPEDTAVYYCAARSETSYYPSRYDYWGQGTQVTVSS | high polyreactivity
QVLLVESGGGLVQAGGSLRLSCAAWSIFYLNAMGWYRQAPGKERELVAAISSAGSTYYADSVKVRFTISRDNAKNTVYLQMNSLKPEDTAVYYCAAYWYDSPGVTEIWYDYWGQGTQVTVSS | low polyreactivity
QVLLVESGGGLVQAGGSLRLSCAAYGRTFYGYAMGWYRQAPGKERELVATISSGDSTNYADSVKGRFTISRDNAKNTVYLQMNSLKPEDTAVYYCAAQGGDGVLALYYYWGQGTQVTVSS | low polyreactivity
QVLLVESGGGLVQAGGSLRLSSAASGSIFNRYAMGWYRQAPGKDSEFVAAITYSGGSTYYADSVKGRFTISRDNAKNNVYLQMIRVKPEDTAVYYCAKAYYPKGRYGFDYWGQGTQVTVSS | high polyreactivity
QVLLVESGGGLVQAGGSVRLICAASGSIFKKYALGWYRPATGEERELVAAISWRGGRTYYADSVTGRFTISRDNAKNTVFLQMNSLKPEDTAVYYCAKERYVSYRGGPWVDYWGQGTQVTVSS | high polyreactivity
QVLLVESRGALVQAGGSLRLSCAASGSTFYWYAMGRYRQAPGKERELVASITRSGVRTYYADSVKGRFTISRDNGKNTVYLQMNSLKPEDTAVYYCAAERYYFPRSFRYGYWGQGTQVTVSS | low polyreactivity
QVLLVESRGGLVQAGGSLRLSCAASGSIFFYYAMGWYRQAPGKETELVASISWSGGSTYYADSVKGRFTISRDNAKNTVYLQMNSLKPEDTAVYFCAKVTITFSWETLYDYWGQGTQVTVSS | low polyreactivity
QVNLVESGGGLVQAGGSLRLSCAAYGRTFRTNAMRCNRQEPGKERELFAAITYSGDSTYYADSVKGRFTISRDNEKNTVYLQMNSLKPEDTAVYYCNARLLSGPGYDYWRQGTQVTVSS | low polyreactivity
QVPLVDSGGGLVQAGGSVRLSCAASGSIFYVYALGWYRQAPGTERELVAAINPSGGSTYADSVKGRFTISRDNAKISVYLQMYSLKTEDNAVSYCAAEPEWWWRGYGYWGQGKQVTVSS | low polyreactivity
QVPLVEAGGGLVQAGGSLRVSCAASGITFQLYGMGWYSQAPGKERELVAAITGSDGITYYADSVKGRFTISLDNAKNTVYLPMNSLKPEDTAVYYCAAEWWDYWNEYDYWGQGTQVTVSS | high polyreactivity

Sequence | polyreactivity (PSR sort gate)
QVPLVESGGGLVQAGGILRISCAATGSSFRFKAMGWYRQAPGQERELVAAISRRGSSTYYADSVKGRCTISRDNAKNRVYLQMNSLKAEDTAVYYCAASGGYRPHRYQIGDYDNWGQGTQVTLSS | high polyreactivity
QVPLVESGGGLVQAGGSLRISCAASFRYNTMGWYRQAPGKERELVAAISGSGSRTYYADSVKGRFTISRDNAKITVYLQMNSLKPEDTAVFYCAALSYRNSEVGTSRGDYWGQGTQVTVSS | high polyreactivity
QVPLVESGGGLVQAGGSLRLSCAASGGIFGRYAMGWYRQAPGKERELVAALSARGGSSYYADSVKGRFTISRDNAKNTVYFQMNSLKPEDTAVYYCNALWVSYYTFRMDYWGQGTQVTVSS | high polyreactivity
QVPLVESGGGLVQAGGSLRLSCAASGITIRGYAMGWYRQAPGKDRELVAAINTRTSTYYADSVKGRFTISRDNAKHTVYLQMNSLKPEDTAVYYCNRDPVYYDYDYWGQGTQVTVSS | low polyreactivity
QVPLVESGGGLVQAGGSLRLSCAASGRIFKSNAMGWYRQAPGKERELVAAISYSGGSTYYADSVKGRFTISRDNAKKTVYLQMNRLKPEDTAVYYCNKYFRREYDYWGQGTQVTVSS | high polyreactivity
QVPLVESGGGLVQAGGSLRLSCAASGRSFTSNAMGWYRQAPGKEREFVAAITIRGGSTYYADSVKGRFTISRDNATNTVYLQMHSLKPEDTALYYCAVGRRKTWGDYWGQGTQVTVSS | high polyreactivity
QVPLVESGGGLVQAGGSLRLSCAASGSIFNIYALGWYRPAPGKVWELVAGISWDSGSTFYADSVKGRVTISRDNAKNTVYLQMNSLKPEDTAGYYCNVVYETYCDEFDYWGQGTQVTVSS | high polyreactivity
QVPLVESGGGLVQAGGSLRLSCSASGIIFNAYTMGWYRQAPGKESELVAAITTAGSTHYADSVKGRFTISRDNAKNTVYLQMNSLKPEDTAVYYCNADTPVGKYAHLACYQDYDDWGQGTQVTVSS | low polyreactivity
QVPLVESGGGLVQAGGSLSLTCAASGRNLKYYDMGWYRQAPGKERELVAAISVSGTSTYYADSVKGRFTISRDNAKNTVYLQMNSLKPEDTAVYYCATATGRYSFDYWGQGTQVTLSS | low polyreactivity
QVPLVESVGGLVQAGGSLRLSCAASGLTFWRYAMGWYRQAPGKEREFVAAISSGGSTNYADSVKGRFTISRDNAKNTVYLQMNSLKPEDTAVYYCNARYYHKRSTRVIFPYDYWGQGTQVTVSS | high polyreactivity
QVPLVESVGGLVQAGGSLRLSCAASGSTFLSNAMGWYRQAPGKERELVASINWIGGSTRYADSVKGRFTISRDNAKNTVYLQMNSLKPEDTAVYYCASRRRWGGHGAFLYYYWGQGTQVTVSS | high polyreactivity
QVQHEESGGGLDQAGGSLRLSSASSGTIFYGCYMGWYRQARGKEREMVATISWSSGSSTYYADSVKGRFTISRDNANNSVYLQMNILKPEDTAVYYCAVDFAIGYRYLCRVDYWGQGTQVTVSS | low polyreactivity
QVQHEESGGGLVQAGASLRLSCAPSGRILLYNAMGCYRQAPGKERELVAAISSTGGRTYYADSVKGRFTISRDNAKNTFYLQMNSLKPEDTAVYYCAADYYWSLHQRMDYWGQGTQVTVSS | high polyreactivity
QVQHEESGGGLVQAGGSLRLSCAASGFTFFSNAMGWFRQAPGKERELVAAITTNGGSTYYADSVKGRFTISRDNAKNTVYLQMYSLKPEDTAGYYCAAEYGITDYDYWGQGTQVTVSS | low polyreactivity
QVQHEESGGGLVQAGGSLRLSCAASGLTFYPYAMGWYRQATGKESELVAGISASGGGTSYADSVKGRFTISRDNAKNTVYLQMNSLKPEDTAVYYCAATPTFFVWQGYNYWGQGTQVTVSS | low polyreactivity
QVQHEESRRGLVQAGVSLRLRCAASGYTFRVYLMGCYRQAPGKERELVAAITYSGGRTYYADSVKGRFTISRDNAKNTVYLQMNSLKPVDTAVYYCAAERPWYGRDRGFDYWGQGTQVTVSS | high polyreactivity
QVQHGESGGGLVQAGGSLRLSCAASGTTLAAYTMGWYRQAPGKERELVAAINSGGGTNYADSVKGRFTISRDNAKNTVYLQMNSLKPEDTAVYYCAKVVFVRGAPGYYWGQGTQVTVSS | high polyreactivity
QVQHLESGGGLVQAGGSLRLSCAASAITFDHYAMGWYRQAPGKEREFVAAIDDIGGDTYYPDSVKGRFTSSRDNAKNNVYLQMNSVQPEDTAVYDCNADGEGADSDYEYWGQGNQVTVSS | low polyreactivity
QVQHLETGGGLDQAGGSLRLSCAASVRTFGANAMAWYRQAPGNERALVAAITGRGGSTYYADSVKGRFTFSRDNAKNTVYLQMNSLKPEDTAVYYCAKPFKRGYGYDYWGQGTQVTVSS | low polyreactivity
QVQHVDSGGGLVQAGGSLLLSCAASGFTFRTYAMGWYRQAPGKEREFVAAITTSGGSTYYADSVKGRFTISRDNAKNTVYLQMNSLKPEDTAVYYCAAKKATVVYRMEYWGQGTLVTVSS | high polyreactivity
QVQHVDSGGGLVQAGGSLRLSCAASGSSFGTYDMGWYRQAPGKERELVARISGGGSTYYADSVKGRLTISRDNAKNTVYFQMNRLKPEDTAVYYCNVRKWAYWSHAFIYTYWGQGTQVTVSS | high polyreactivity
